Results as given in patent US7662384B2, “Use of anti-α5β1 antibodies to inhibit cancer cell proliferation” (Facet Biotech Corporation, priority 2004, dated 2010).
Read-outs that look alike come from different tables or passages of the source.

Columns and labels:
[1] = biological target: α5β1 integrin binding to fibronectin (Homo sapiens, UniProt P05556+P08648); test: in vitro activity assay: inhibition of binding of α5β1 to fibronectin; format: biochemical
angiogenesis [2] = conditions: monkey eye model; cited from earlier work
refractory solid tumors = test: Phase I dose-escalation study: tumor response (RECIST); format: in vivo, human; design: key to Response outcome: Complete Response (CR): Disappearance of all target lesions confirmed by repeat imaging 25 to 28 days after CR first documented.; Partial Response (PR): At least a 30% decrease in the sum of LD of target lesions, taking as reference the baseline sum LD; Stable Disease (SD): Neither sufficient shrinkage to qualify for PR nor sufficient increase to qualify for PD, taking as references the smallest sum LD.; Progressive Disease (PD): At least a 20% increase in the sum of LD of target lesions, taking as reference the smallest sum LD recorded since treatment started, or the appearance of one or more new lesions
Experimental: A two-part Phase I open-label study was carried to determine the effects of treatment with up to 6 dose levels, from 0.5 mg/kg to 15.0 mg/kg of M200 (volociximab) in 21 human patients with a variety of refractory solid tumor types. The total duration of treatment for the first part was 6 weeks with physical assessments through 45 days after the last dose.
The dosing levels and schedule used in the study were as follows. M200 was administered to the 21 patients on days 1, 15, 22, 29, and 36. The dosing levels and numbers of patients per level were: 0.5 mg/kg (1 patient), 1.0 mg/kg (2 patient), 2.5 mg/kg (3 patients), 5.0 mg/kg (3 patients), 10.0 mg/kg (6 patients) and 15 mg/kg (6 patients). The dose was administered as an intravenous infusion over 1 hour. The first and second doses were separated by a two week period to allow sampling for single-dose pharmacokinetic data. The real-time PK measurements performed following the first dose were used to predict each patient's peak serum concentration following the fifth dose. If the predicted peak serum concentration following the fifth dose was <750 μg/mL, the patient received all 5 doses of M200. The remaining 3 doses were given weekly and followed by a 45-day evaluation period.
Patient evaluations during the study included the following: • a. Screening (within 14 days of study entry) of: medical history and physical examination, ECOG performance status, routine chemistry panel, complete blood count (CBC) with differential and platelets, sensitive C-reactive protein (CRP), urinalysis with microscopic analysis (UA/micro), electrocardiogram (ECG), chest radiograph (CXR), disease-directed body CT or MRI, urine pregnancy test within 48 hours prior to dosing, and coagulation studies (prothrombin [PT] and partial thromboplastin time [PTT]), anti-M200 antibodies (i.e., to detect cross-reactive HAMA or HACA) for patients who previously received murine or chimeric antibodies, head CT for patients with tumors that commonly metastasize to brain or CNS, and, in some patients, a biopsy to evaluate tumor vessel vascularity. • b. On-study laboratory evaluations: routine chemistry panel, urate, serum amylase, CBC with differential and platelets, UA/micro. • c. Routine disease-directed radiographic imaging (e.g., CT scanning) before and after treatment with M200 was used to evaluate tumor response using uni-dimensional, RECIST criteria. Target lesions were selected on the basis of their size (lesions with the longest diameter (LD)) and their suitability for accurate repetitive measurements (either by imaging techniques or clinically). A sum of the LD for all target lesions was calculated and reported as the baseline sum LD. The baseline sum LD was used as reference by which to characterize the objective tumor response. The following response criteria for the target lesions was used to assess the best overall response. • Complete Response (CR): Disappearance of all target lesions confirmed by repeat imaging 25 to 28 days after CR first documented. • Partial Response (PR): At least a 30% decrease in the sum of LD of target lesions, taking as reference the baseline sum LD, confirmed by repeat imaging 25 to 28 days after PR first documented. • Stable Disease (SD): Neither sufficient shrinkage to qualify for PR nor sufficient increase to qualify for PD, taking as references the smallest sum LD. • Progressive Disease (PD): At least a 20% increase in the sum of LD of target lesions, taking as reference the smallest sum LD recorded since treatment started, or the appearance of one or more new lesions. • d. Blood drawn for serum PK measurements, immunogenicity assays (anti-M200 antibodies), vascular growth factors, and measurement of bound and unbound α5β1 on peripheral blood monocytes. • e. A 3-mm punch biopsy of superficial tumor metastasis was obtained and frozen after the last treatment with M200 from patients who consented (not required for enrollment) to the procedure. […]

angiogenesis [3] = conditions: rabbit eye model; cited from earlier work

Chain of α5β1 integrin binding to fibronectin (P08648 42-894 limits assumed): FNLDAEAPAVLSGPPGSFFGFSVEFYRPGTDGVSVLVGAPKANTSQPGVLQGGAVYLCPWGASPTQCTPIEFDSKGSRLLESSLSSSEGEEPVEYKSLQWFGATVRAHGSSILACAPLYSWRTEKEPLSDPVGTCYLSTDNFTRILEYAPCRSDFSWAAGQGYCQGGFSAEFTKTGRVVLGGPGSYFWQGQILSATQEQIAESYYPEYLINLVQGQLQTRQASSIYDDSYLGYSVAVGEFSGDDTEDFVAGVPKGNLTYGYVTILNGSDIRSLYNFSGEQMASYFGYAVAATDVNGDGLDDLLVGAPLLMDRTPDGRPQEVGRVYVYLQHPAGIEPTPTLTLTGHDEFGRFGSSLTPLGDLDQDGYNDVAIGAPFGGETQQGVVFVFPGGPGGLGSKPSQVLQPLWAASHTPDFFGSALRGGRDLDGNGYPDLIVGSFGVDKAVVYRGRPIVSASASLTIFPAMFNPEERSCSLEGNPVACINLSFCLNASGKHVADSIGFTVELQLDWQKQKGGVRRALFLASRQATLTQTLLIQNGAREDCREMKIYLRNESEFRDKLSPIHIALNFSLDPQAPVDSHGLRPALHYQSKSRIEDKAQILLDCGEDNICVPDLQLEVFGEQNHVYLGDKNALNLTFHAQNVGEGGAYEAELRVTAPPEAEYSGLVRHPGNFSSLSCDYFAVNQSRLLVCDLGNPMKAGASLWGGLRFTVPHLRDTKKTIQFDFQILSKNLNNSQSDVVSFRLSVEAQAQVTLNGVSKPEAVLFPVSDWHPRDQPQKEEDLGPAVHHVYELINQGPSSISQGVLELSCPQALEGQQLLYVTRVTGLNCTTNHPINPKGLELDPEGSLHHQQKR
Chain of α5β1 integrin binding to fibronectin (P08648 895-1049 limits assumed): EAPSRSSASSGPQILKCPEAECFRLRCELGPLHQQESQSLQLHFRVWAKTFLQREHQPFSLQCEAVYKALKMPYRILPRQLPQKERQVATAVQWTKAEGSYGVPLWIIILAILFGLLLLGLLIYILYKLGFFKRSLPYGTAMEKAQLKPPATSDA
Chain of α5β1 integrin binding to fibronectin (P05556 21-798): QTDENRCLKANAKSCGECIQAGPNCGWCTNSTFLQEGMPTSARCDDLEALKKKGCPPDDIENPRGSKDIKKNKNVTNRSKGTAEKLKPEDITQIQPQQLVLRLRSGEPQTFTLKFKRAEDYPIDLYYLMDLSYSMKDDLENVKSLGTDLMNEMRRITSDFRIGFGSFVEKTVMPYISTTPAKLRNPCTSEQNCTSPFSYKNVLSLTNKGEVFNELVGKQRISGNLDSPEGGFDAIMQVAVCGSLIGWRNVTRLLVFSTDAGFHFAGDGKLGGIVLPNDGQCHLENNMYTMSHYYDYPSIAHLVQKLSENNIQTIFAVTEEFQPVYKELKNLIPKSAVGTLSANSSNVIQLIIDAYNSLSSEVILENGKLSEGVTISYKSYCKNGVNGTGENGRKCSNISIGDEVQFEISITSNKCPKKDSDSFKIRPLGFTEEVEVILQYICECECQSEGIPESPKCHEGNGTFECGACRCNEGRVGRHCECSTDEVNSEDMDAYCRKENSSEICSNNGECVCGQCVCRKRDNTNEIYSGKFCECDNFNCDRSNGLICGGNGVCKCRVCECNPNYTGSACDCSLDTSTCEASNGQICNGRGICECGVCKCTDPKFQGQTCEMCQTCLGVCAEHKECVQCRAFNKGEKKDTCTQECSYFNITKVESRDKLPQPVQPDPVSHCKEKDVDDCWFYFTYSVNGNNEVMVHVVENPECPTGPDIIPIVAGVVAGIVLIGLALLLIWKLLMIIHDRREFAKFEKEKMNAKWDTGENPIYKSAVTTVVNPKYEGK

B1: M200: chimeric IgG4 anti-α5β1 antibody derived from IIA1; generic name volociximab (antibody, V domains shown)
VH: MAVLGLLLCLVTFPSCVLSQVQLKESGPGLVAPSQSLSITCTISGFSLTDYGVHWVRQPPGKGLEWLVVIWSDGSSTYNSALKSRMTIRKDNSKSQVFLIMNSLQTDDSAMYYCARHGTYYGMTTTGDALDYWGQGTSVTVSS
VL: MDFQVQIFSFLLISASVIMSRGQIVLTQSPAIMSASLGERVTMTCTASSSVSSNYLHWYQQKPGSAPNLWIYSTSNLASGVPARFSGSGSGTSYSLTISSMEAEDAATYYCHQYLRSPPTFGGGTKLEIKDMSVDMSV
modifications: chimeric antibody
notes: chimeric IgG4 anti-α5β1 antibody derived from IIA1; generic name volociximab
concentration that produces 80% inhibition of binding of α5β1 to fibronectin [1]: 1 µg/mL
in vivo anti-angiogenic efficacy (angiogenesis [2]): in vivo anti-angiogenic efficacy
Response outcome (refractory solid tumors; 0.5 mg/kg, CRC patient): (PD) (Progressive Disease (PD): At least a 20% increase in the sum of LD of target lesions, taking as reference the smallest sum LD recorded since treatment started, or the appearance of one or more new lesions.)
Response outcome (refractory solid tumors; 1.0 mg/kg, HCC patient): (SD)
Response outcome (refractory solid tumors; 1.0 mg/kg, PC patient): (SD)
Response outcome (refractory solid tumors; 2.5 mg/kg, CRC patient): (PD) (Progressive Disease (PD): At least a 20% increase in the sum of LD of target lesions, taking as reference the smallest sum LD recorded since treatment started, or the appearance of one or more new lesions.)
Response outcome (refractory solid tumors; 2.5 mg/kg, MEL Ocular patient): (PD) (Progressive Disease (PD): At least a 20% increase in the sum of LD of target lesions, taking as reference the smallest sum LD recorded since treatment started, or the appearance of one or more new lesions.)
Response outcome (refractory solid tumors; 2.5 mg/kg, NSCLC patient): (SD)
Response outcome (refractory solid tumors; 5.0 mg/kg, EC patient): (PD) (Progressive Disease (PD): At least a 20% increase in the sum of LD of target lesions, taking as reference the smallest sum LD recorded since treatment started, or the appearance of one or more new lesions.)
Response outcome (refractory solid tumors; 5.0 mg/kg, HCC patient): (SD)
Response outcome (refractory solid tumors; 5.0 mg/kg, THY patient): (PD) (Progressive Disease (PD): At least a 20% increase in the sum of LD of target lesions, taking as reference the smallest sum LD recorded since treatment started, or the appearance of one or more new lesions.)
Response outcome (refractory solid tumors; 10.0 mg/kg, BC patient): (SD)
Response outcome (refractory solid tumors; 10.0 mg/kg, CRC patient (two patients)): (SD)
Response outcome (refractory solid tumors; 10.0 mg/kg, MEL patient): (PD) (Progressive Disease (PD): At least a 20% increase in the sum of LD of target lesions, taking as reference the smallest sum LD recorded since treatment started, or the appearance of one or more new lesions.)
Response outcome (refractory solid tumors; 10.0 mg/kg, PARO patient): (SD)
Response outcome (refractory solid tumors; 10.0 mg/kg, RCC patient): (SD)
Response outcome (refractory solid tumors; 15.0 mg/kg, EC patient): (PD) (Progressive Disease (PD): At least a 20% increase in the sum of LD of target lesions, taking as reference the smallest sum LD recorded since treatment started, or the appearance of one or more new lesions.)
Response outcome (refractory solid tumors; 15.0 mg/kg, PRO patient): (PD) (Progressive Disease (PD): At least a 20% increase in the sum of LD of target lesions, taking as reference the smallest sum LD recorded since treatment started, or the appearance of one or more new lesions.)
overall response outcome: progressive disease (PD) (refractory solid tumors; 21 treated patients, 0.5-15 mg/kg): 10 patients
in vivo anti-angiogenic efficacy (angiogenesis [3]): in vivo anti-angiogenic efficacy
